Measured values taken from patent publication US20260242735A1 (UNIVERSIT T BASEL, published 2026).

How the values were obtained:
[1] = target: human CD33 E85A (human, UniProt P20138 18-364); assay: alanine scan, flow cytometry, HEK293-T;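 also: antibody binding to each alanine-substituted CD33 mutant expressed transiently in HEK293-T, read as fluorescence minus background, mean of duplicates, relative to wild-type CD33 set as 100%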
[2] = target: human CD33 G88A (human, UniProt P20138 18-364); assay: alanine scan, flow cytometry, HEK293-T;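 also: antibody binding to each alanine-substituted CD33 mutant expressed transiently in HEK293-T, read as fluorescence minus background, mean of duplicates, relative to wild-type CD33 set as 100%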
human CD33 G88A, sequence (P20138 18-364 G88A limits assumed): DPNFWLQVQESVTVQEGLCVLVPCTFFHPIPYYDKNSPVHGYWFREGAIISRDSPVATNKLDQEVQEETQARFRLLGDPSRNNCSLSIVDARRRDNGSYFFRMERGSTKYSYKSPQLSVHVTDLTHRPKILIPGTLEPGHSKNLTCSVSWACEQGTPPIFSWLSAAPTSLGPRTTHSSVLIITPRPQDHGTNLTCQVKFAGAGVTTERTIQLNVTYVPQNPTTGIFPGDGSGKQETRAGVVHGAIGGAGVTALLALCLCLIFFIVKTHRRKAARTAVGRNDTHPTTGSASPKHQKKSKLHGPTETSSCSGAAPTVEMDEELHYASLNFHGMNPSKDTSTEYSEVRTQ

[3] = target: human CD33 D79A (human, UniProt P20138 18-364); assay: alanine scan, flow cytometry, HEK293-T;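 also: antibody binding to each alanine-substituted CD33 mutant expressed transiently in HEK293-T, read as fluorescence minus background, mean of duplicates, relative to wild-type CD33 set as 100%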
human CD33 D79A, sequence (P20138 18-364 D79A limits assumed): as the sequence (P20138 18-364 G88A limits assumed) above, with D62A, A71G counted along it

[4] = target: human CD33 V56A (human, UniProt P20138 18-364); assay: alanine scan, flow cytometry, HEK293-T;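 also: antibody binding to each alanine-substituted CD33 mutant expressed transiently in HEK293-T, read as fluorescence minus background, mean of duplicates, relative to wild-type CD33 set as 100%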
human CD33 V56A, sequence (P20138 18-364 V56A limits assumed): as the sequence (P20138 18-364 G88A limits assumed) above, with V39A, A71G counted along it

[5] = target: human CD33 I66A (human, UniProt P20138 18-364); assay: alanine scan, flow cytometry, HEK293-T
human CD33 I66A, sequence (P20138 18-364 I66A limits assumed): as the sequence (P20138 18-364 G88A limits assumed) above, with I49A, A71G counted along it

[6] = target: human CD33 F117A (human, UniProt P20138 18-364); assay: alanine scan, flow cytometry, HEK293-T
human CD33 F117A, sequence (P20138 18-364 F117A limits assumed): as the sequence (P20138 18-364 G88A limits assumed) above, with A71G, F100A counted along it

[7] = target: human CD33 G114A (human, UniProt P20138 18-364); assay: alanine scan, flow cytometry, HEK293-T
human CD33 G114A, sequence (P20138 18-364 G114A limits assumed): as the sequence (P20138 18-364 G88A limits assumed) above, with A71G, G97A counted along it

[8] = target: human CD33 T75A (human, UniProt P20138 18-364); assay: alanine scan, flow cytometry, HEK293-T
human CD33 T75A, sequence (P20138 18-364 T75A limits assumed): as the sequence (P20138 18-364 G88A limits assumed) above, with T58A, A71G counted along it

[9] = target: human CD33 P96A (human, UniProt P20138 18-364); assay: alanine scan, flow cytometry, HEK293-T
human CD33 P96A, sequence (P20138 18-364 P96A limits assumed): as the sequence (P20138 18-364 G88A limits assumed) above, with A71G, P79A counted along it

[10] = target: human CD33 K77A (human, UniProt P20138 18-364); assay: alanine scan, flow cytometry, HEK293-T
human CD33 K77A, sequence (P20138 18-364 K77A limits assumed): as the sequence (P20138 18-364 G88A limits assumed) above, with K60A, A71G counted along it

[11] = target: human CD33 Q87A (human, UniProt P20138 18-364); assay: alanine scan, flow cytometry, HEK293-T
human CD33 Q87A, sequence (P20138 18-364 Q87A limits assumed): as the sequence (P20138 18-364 G88A limits assumed) above, with Q70A, A71G counted along it

[12] = target: human CD33 D51A (human, UniProt P20138 18-364); assay: alanine scan, flow cytometry, HEK293-T
human CD33 D51A, sequence (P20138 18-364 D51A limits assumed): as the sequence (P20138 18-364 G88A limits assumed) above, with D34A, A71G counted along it

[13] = target: human CD33 D95A (human, UniProt P20138 18-364); assay: alanine scan, flow cytometry, HEK293-T
human CD33 D95A, sequence (P20138 18-364 D95A limits assumed): as the sequence (P20138 18-364 G88A limits assumed) above, with A71G, D78A counted along it

[14] = target: human CD33 L78A (human, UniProt P20138 18-364); assay: alanine scan, flow cytometry, HEK293-T
human CD33 L78A, sequence (P20138 18-364 L78A limits assumed): as the sequence (P20138 18-364 G88A limits assumed) above, with L61A, A71G counted along it

[15] = target: human CD33 R109A (human, UniProt P20138 18-364); assay: alanine scan, flow cytometry, HEK293-T
human CD33 R109A, sequence (P20138 18-364 R109A limits assumed): as the sequence (P20138 18-364 G88A limits assumed) above, with A71G, R92A counted along it

[16] = target: human CD33 V106A (human, UniProt P20138 18-364); assay: alanine scan, flow cytometry, HEK293-T
human CD33 V106A, sequence (P20138 18-364 V106A limits assumed): as the sequence (P20138 18-364 G88A limits assumed) above, with A71G, V89A counted along it

[17] = target: human CD33 W22G (human, UniProt P20138 18-364); assay: flow cytometry, transfected cells
human CD33 W22G, sequence (P20138 18-364 W22G limits assumed): as the sequence (P20138 18-364 G88A limits assumed) above, with W5G, A71G counted along it

[18] = target: T1, human CD33 R144A (human, UniProt P20138 18-364); assay: alanine scan, flow cytometry, HEK293-T
T1 construct: alanine scan clone, transfected HEK293-T
T1 sequence (P20138 18-364 R144A limits assumed): as the sequence (P20138 18-364 G88A limits assumed) above, with A71G, R127A counted along it

[19] = target: T2, human CD33 F177A (human, UniProt P20138 18-364); assay: alanine scan, flow cytometry, HEK293-T
T2 construct: alanine scan clone, transfected HEK293-T
T2 sequence (P20138 18-364 F177A limits assumed): as the sequence (P20138 18-364 G88A limits assumed) above, with A71G, F160A counted along it

[20] = target: T3, human CD33 P189A (human, UniProt P20138 18-364); assay: alanine scan, flow cytometry, HEK293-T
T3 construct: alanine scan clone, transfected HEK293-T
T3 sequence (P20138 18-364 P189A limits assumed): as the sequence (P20138 18-364 G88A limits assumed) above, with A71G, P172A counted along it

[21] = target: T4, human CD33 I176A (human, UniProt P20138 18-364); assay: alanine scan, flow cytometry, HEK293-T
T4 construct: alanine scan clone, transfected HEK293-T
T4 sequence (P20138 18-364 I176A limits assumed): as the sequence (P20138 18-364 G88A limits assumed) above, with A71G, I159A counted along it

[22] = target: T5, human CD33 A182S (human, UniProt P20138 18-364); assay: alanine scan, flow cytometry, HEK293-T
T5 construct: alanine scan clone, transfected HEK293-T
T5 sequence (P20138 18-364 A182S limits assumed): as the sequence (P20138 18-364 G88A limits assumed) above, with A71G, A165S counted along it

[23] = target: T6, human CD33 H137A (human, UniProt P20138 18-364); assay: alanine scan, flow cytometry, HEK293-T
T6 construct: alanine scan clone, transfected HEK293-T
T6 sequence (P20138 18-364 H137A limits assumed): as the sequence (P20138 18-364 G88A limits assumed) above, with A71G, H120A counted along it

[24] = target: T7, human CD33 G123A (human, UniProt P20138 18-364); assay: alanine scan, flow cytometry, HEK293-T
T7 construct: alanine scan clone, transfected HEK293-T
T7 sequence (P20138 18-364 G123A limits assumed): as the sequence (P20138 18-364 G88A limits assumed) above, with A71G, G106A counted along it

[25] = target: T8, human CD33 S166A (human, UniProt P20138 18-364); assay: alanine scan, flow cytometry, HEK293-T
T8 construct: alanine scan clone, transfected HEK293-T
T8 sequence (P20138 18-364 S166A limits assumed): as the sequence (P20138 18-364 G88A limits assumed) above, with A71G, S149A counted along it

[26] = target: T9, human CD33 G156A (human, UniProt P20138 18-364); assay: alanine scan, flow cytometry, HEK293-T
T9 construct: alanine scan clone, transfected HEK293-T
T9 sequence (P20138 18-364 G156A limits assumed): as the sequence (P20138 18-364 G88A limits assumed) above, with A71G, G139A counted along it

[27] = target: T10, human CD33 T185A (human, UniProt P20138 18-364); assay: alanine scan, flow cytometry, HEK293-T
T10 construct: alanine scan clone, transfected HEK293-T
T10 sequence (P20138 18-364 T185A limits assumed): as the sequence (P20138 18-364 G88A limits assumed) above, with A71G, T168A counted along it

[28] = target: human CD33 N20W (human, UniProt P20138 18-364); assay: flow cytometry, transfected cells
human CD33 N20W, sequence (P20138 18-364 N20W limits assumed): as the sequence (P20138 18-364 G88A limits assumed) above, with N3W, A71G counted along it

[29] = target: human CD33 N20D (human, UniProt P20138 18-364); assay: flow cytometry, transfected cells
human CD33 N20D, sequence (P20138 18-364 N20D limits assumed): as the sequence (P20138 18-364 G88A limits assumed) above, with N3D, A71G counted along it

[30] = target: human CD33 N20V (human, UniProt P20138 18-364); assay: flow cytometry, transfected cells
human CD33 N20V, sequence (P20138 18-364 N20V limits assumed): as the sequence (P20138 18-364 G88A limits assumed) above, with N3V, A71G counted along it

[31] = target: human CD33 N20K (human, UniProt P20138 18-364); assay: flow cytometry, transfected cells
human CD33 N20K, sequence (P20138 18-364 N20K limits assumed): as the sequence (P20138 18-364 G88A limits assumed) above, with N3K, A71G counted along it

[32] = target: human CD33 N20Q (human, UniProt P20138 18-364); assay: flow cytometry, transfected cells
human CD33 N20Q, sequence (P20138 18-364 N20Q limits assumed): as the sequence (P20138 18-364 G88A limits assumed) above, with N3Q, A71G counted along it

[33] = target: human CD33 P19D (human, UniProt P20138 18-364); assay: flow cytometry, transfected cells
human CD33 P19D, sequence (P20138 18-364 P19D limits assumed): as the sequence (P20138 18-364 G88A limits assumed) above, with P2D, A71G counted along it

human CD33 E85A, sequence (P20138 18-364 E85A limits assumed): as the sequence (P20138 18-364 G88A limits assumed) above, with E68A, A71G counted along it

B1: Refmab #6 (antibody, V domains shown)
VH: QVQLQQPGAEVVKPGASVKMSCKASGYTFTSYYIHWIKQTPGQGLEWVGVIYPGNDDISYNQKFQGKATLTADKSSTTAYMQLSSLTSEDSAVYYCAREVRLRYFDVWGQGTTVTVSS
VL: EIVLTQSPGSLAVSPGERVTMSCKSSQSVFFSSSQKNYLAWYQQIPGQSPRLLIYWASTRESGVPDRFTGSGSGTDFTLTISSVQPEDLAIYYCHQYLSSRTFGQGTKLEIK
notes: Full-length format is human IgG1 Fc silent (PG-LALA); also made as Fab; The alanine scan used IgG or Fab
For B1, the “Mean % WT Binding” value [1] was 94.4 % WT binding, the “Mean % WT Binding” value [2] was 105 % WT binding and the “Mean % WT Binding” value [3] was 78.2 % WT binding. For the same binder, the “Mean % WT Binding” value [4] was 113 % WT binding, the “Mean % WT Binding” value [5] was 93.7 % WT binding and the “Mean % WT Binding” value [6] was 90.3 % WT binding. For the same binder, the “Mean % WT Binding” value [7] was 106 % WT binding, the “Mean % WT Binding” value [8] was 102 % WT binding and the “Mean % WT Binding” value [9] was 92.3 % WT binding. The “Mean % WT Binding” value [10] was 79.9 % WT binding, the “Mean % WT Binding” value [11] was 96.9 % WT binding and the “Mean % WT Binding” value [12] was 61.7 % WT binding. For the same binder, the “Mean % WT Binding” value [13] was 86.3 % WT binding, the “Mean % WT Binding” value [14] was 110 % WT binding and the “Mean % WT Binding” value [15] was 107 % WT binding. For the same binder, the “Mean % WT Binding” value [16] was 125 % WT binding.

B2: Refmab #6 (antibody, human IgG1, V domains shown)
VH: QVQLQQPGAEVVKPGASVKMSCKASGYTFTSYYIHWIKQTPGQGLEWVGVIYPGNDDISYNQKFQGKATLTADKSSTTAYMQLSSLTSEDSAVYYCAREVRLRYFDVWGQGTTVTVSS
VL: EIVLTQSPGSLAVSPGERVTMSCKSSQSVFFSSSQKNYLAWYQQIPGQSPRLLIYWASTRESGVPDRFTGSGSGTDFTLTISSVQPEDLAIYYCHQYLSSRTFGQGTKLEIK
B2: no binding (tested: below 20%) [17].

B3: Refmab #6 (antibody, V domains shown)
VH: QVQLQQPGAEVVKPGASVKMSCKASGYTFTSYYIHWIKQTPGQGLEWVGVIYPGNDDISYNQKFQGKATLTADKSSTTAYMQLSSLTSEDSAVYYCAREVRLRYFDVWGQGTTVTVSS
VL: EIVLTQSPGSLAVSPGERVTMSCKSSQSVFFSSSQKNYLAWYQQIPGQSPRLLIYWASTRESGVPDRFTGSGSGTDFTLTISSVQPEDLAIYYCHQYLSSRTFGQGTKLEIK
notes: The alanine scan used IgG or Fab
B3 was tested, and the “Mean % WT Binding” value [18] was 104 % WT binding, the “Mean % WT Binding” value [19] was 48.7 % WT binding and the “Mean % WT Binding” value [20] was 103 % WT binding. For the same binder, the “Mean % WT Binding” value [21] was 102 % WT binding, the “Mean % WT Binding” value [22] was 93.9 % WT binding and the “Mean % WT Binding” value [23] was 117 % WT binding. For the same binder, the “Mean % WT Binding” value [24] was 94.1 % WT binding, the “Mean % WT Binding” value [25] was 108 % WT binding and the “Mean % WT Binding” value [26] was 88.1 % WT binding. For the same binder, the “Mean % WT Binding” value [27] was 117 % WT binding.

B4: Refmab #1 (antibody, human IgG1, V domains shown)
VH: EVQLVQSGAEVKKPGSSVKVSCKASGYTITDSNIHWVRQAPGQSLEWIGYIYPYNGGTDYNQKFKNRATLTVDNPTNTAYMELSSLRSEDTAFYYCVNGNPWLAYWGQGTLVTVSS
VL: DIQLTQSPSTLSASVGDRVTITCRASESLDNYGIRFLTWFQQKPGKAPKLLMYAASNQGSGVPSRFSGSGSGTEFTLTISSLQPDDFATYYCQQTKEVPWSFGQGTKVEVK
notes: also called hP67.6; Absolute Antibody Cat. No. Ab00283-10.0
B4: no binding (tested: below 20%) [28]; no binding (tested: below 20%) [29]; no binding (tested: below 20%) [30]. B4: no binding (tested: below 20%) [31]; no binding (tested: below 20%) [32]; no binding (tested: below 20%) [33].
